Reference: publication doi:10.1101/712158

Key:
L19-mTNF (murine) = experiment: SEC
L19-hIL2 (human) = experiment: SEC

Substance	stoichiometry N (L19-mTNF (murine))	stoichiometry N (L19-hIL2 (human))
L19-mTNF	3	–
L19-hIL2	–	2
